Results published in patent publication US20230220589A1.
Each block holds one binder with its values, some of them ahead of it.

Key:
[1] = biological target: M17-modified A NTAA target peptides; assay: encoding assay; P2 L;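 further: fraction of recording tags encoded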
[2] = biological target: M17-modified D NTAA target peptides; assay: encoding assay; P2 L;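 further: fraction of recording tags encoded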
[3] = biological target: M17-modified E NTAA target peptides; assay: encoding assay; P2 L;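 further: fraction of recording tags encoded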
[4] = biological target: M17-modified F NTAA target peptides; assay: encoding assay; P2 L;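 further: fraction of recording tags encoded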
[5] = biological target: M17-modified G NTAA target peptides; assay: encoding assay; P2 L;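 further: fraction of recording tags encoded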
[6] = biological target: M17-modified H NTAA target peptides; assay: encoding assay; P2 L;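 further: fraction of recording tags encoded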
[7] = biological target: M17-modified I NTAA target peptides; assay: encoding assay; P2 L;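 further: fraction of recording tags encoded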
[8] = biological target: M17-modified L NTAA target peptides; assay: encoding assay; P2 L;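 further: fraction of recording tags encoded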
[9] = biological target: M17-modified M NTAA target peptides; assay: encoding assay; P2 L;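 further: fraction of recording tags encoded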
[10] = biological target: M17-modified N NTAA target peptides; assay: encoding assay; P2 L;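 further: fraction of recording tags encoded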
[11] = biological target: M17-modified P NTAA target peptides; assay: encoding assay; P2 L;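 further: fraction of recording tags encoded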
[12] = biological target: M17-modified Q NTAA target peptides; assay: encoding assay; P2 L;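 further: fraction of recording tags encoded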
[13] = biological target: M17-modified S NTAA target peptides; assay: encoding assay; P2 L;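 further: fraction of recording tags encoded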
[14] = biological target: M17-modified T NTAA target peptides; assay: encoding assay; P2 L;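 further: fraction of recording tags encoded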
[15] = biological target: M17-modified V NTAA target peptides; assay: encoding assay; P2 L;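 further: fraction of recording tags encoded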
[16] = biological target: M17-modified W NTAA target peptides; assay: encoding assay; P2 L;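 further: fraction of recording tags encoded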
[17] = biological target: M17-modified Y NTAA target peptides (M17-Y-P2-peptide); assay: encoding assay; P2 L;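 further: fraction of recording tags encoded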
[18] = biological target: M17-modified A NTAA target peptides; assay: encoding assay; P2 N;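 further: fraction of recording tags encoded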
[19] = biological target: M17-modified D NTAA target peptides; assay: encoding assay; P2 N;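 further: fraction of recording tags encoded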
[20] = biological target: M17-modified H NTAA target peptides; assay: encoding assay; P2 N;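 further: fraction of recording tags encoded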
[21] = biological target: M17-modified N NTAA target peptides; assay: encoding assay; P2 N;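 further: fraction of recording tags encoded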
[22] = biological target: M17-modified P NTAA target peptides; assay: encoding assay; P2 N;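 further: fraction of recording tags encoded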
[23] = biological target: M17-modified T NTAA target peptides; assay: encoding assay; P2 N;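 further: fraction of recording tags encoded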
[24] = biological target: M17-modified V NTAA target peptides; assay: encoding assay; P2 N;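 further: fraction of recording tags encoded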
[25] = biological target: M17-modified W NTAA target peptides; assay: encoding assay; P2 N;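 further: fraction of recording tags encoded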
[26] = biological target: M17-modified Y NTAA target peptides (M17-Y-P2-peptide); assay: Gini coefficient of P2 tolerance from multiplex encoding heatmap
[27] = biological target: M44-modified A NTAA target peptides (M44-A-P2-peptide); assay: encoding assay; P2 S
[28] = biological target: M44-modified F NTAA target peptides (M44-F-P2-peptide); assay: encoding assay; P2 S;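 further: fraction of recording tags encoded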
[29] = biological target: M44-modified G NTAA target peptides (M44-G-P2-peptide); assay: encoding assay; P2 S;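 further: fraction of recording tags encoded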
[30] = biological target: M44-modified H NTAA target peptides; assay: encoding assay; P2 S
[31] = biological target: M44-modified I NTAA target peptides (M44-I-P2-peptide); assay: encoding assay; P2 S
[32] = biological target: M44-modified L NTAA target peptides (M44-L-P2-peptide); assay: encoding assay; P2 S;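 further: fraction of recording tags encoded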
[33] = biological target: M44-modified M NTAA target peptides; assay: encoding assay; P2 S
[34] = biological target: M44-modified P NTAA target peptides; assay: encoding assay; P2 S;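 further: fraction of recording tags encoded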
[35] = biological target: M44-modified Q NTAA target peptides; assay: encoding assay; P2 S
[36] = biological target: M44-modified T NTAA target peptides; assay: encoding assay; P2 S
[37] = biological target: M44-modified V NTAA target peptides; assay: encoding assay; P2 S;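 further: fraction of recording tags encoded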
[38] = biological target: M44-modified Y NTAA target peptides (M44-Y-P2-peptide); assay: encoding assay; P2 S;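 further: fraction of recording tags encoded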
[39] = biological target: M44-modified I NTAA target peptides (M44-I-P2-peptide); assay: encoding assay; P2 M
[40] = biological target: M44-modified A NTAA target peptides (M44-A-P2-peptide); assay: encoding assay; P2 Q
[41] = biological target: M44-modified D NTAA target peptides; assay: encoding assay; P2 Q;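 further: fraction of recording tags encoded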
[42] = biological target: M44-modified E NTAA target peptides; assay: encoding assay; P2 Q;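 further: fraction of recording tags encoded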
[43] = biological target: M44-modified F NTAA target peptides (M44-F-P2-peptide); assay: encoding assay; P2 Q;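 further: fraction of recording tags encoded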
[44] = biological target: M44-modified H NTAA target peptides; assay: encoding assay; P2 Q
[45] = biological target: M44-modified I NTAA target peptides (M44-I-P2-peptide); assay: encoding assay; P2 Q
[46] = biological target: M44-modified L NTAA target peptides (M44-L-P2-peptide); assay: encoding assay; P2 Q;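 further: fraction of recording tags encoded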
[47] = biological target: M44-modified M NTAA target peptides; assay: encoding assay; P2 Q
[48] = biological target: M44-modified N NTAA target peptides; assay: encoding assay; P2 Q
[49] = biological target: M44-modified Q NTAA target peptides; assay: encoding assay; P2 Q
[50] = biological target: M44-modified S NTAA target peptides; assay: encoding assay; P2 Q
[51] = biological target: M44-modified V NTAA target peptides; assay: encoding assay; P2 Q;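 further: fraction of recording tags encoded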
[52] = biological target: M44-modified L NTAA target peptides (M44-L-P2-peptide); assay: Gini coefficient of P2 tolerance from multiplex encoding heatmap

B1: engineered M17-Y binder (SEQ ID NO: 61) (designed binder, not shown: small tags and cut ends; large carriers)
chain: TVPDRSEIAGKWYVVALASNTEFYLREKDWVKSAMARISFLGEDELKVSSAVPSPNGCYKVERTWKKTSDDGEVYNSRAAKLKVEVLDTDYKSYAVIYATRVKDGRTDHQMILYSRSPEVSPAATAIFRKLAGERNYTDEMVAMLPRQEECTVDEV
encoding yield [1]: 0.02 | encoding yield [2]: 0.02 | encoding yield [3]: 0.03 | encoding yield [4]: 0.04 | encoding yield [5]: 0.02 | encoding yield [6]: 0.02 | encoding yield [7]: 0.01 | encoding yield [8]: 0.06 | encoding yield [9]: 0.03 | encoding yield [10]: 0.03 | encoding yield [11]: 0.02 | encoding yield [12]: 0.02 | encoding yield [13]: 0.03 | encoding yield [14]: 0.01 | encoding yield [15]: 0.02 | encoding yield [16]: 0.01 | encoding yield [17]: 0.17 | encoding yield [18]: 0.02 | encoding yield [19]: 0.02 | encoding yield [20]: 0.03 | encoding yield [21]: 0.03 | encoding yield [22]: 0.01 | encoding yield [23]: 0.01 | encoding yield [24]: 0.02 | encoding yield [25]: 0.02 | P2 score [26]: 0.225

B3: engineered M44-A binder (SEQ ID NO: 42) (designed binder, not shown: small tags and cut ends; large carriers)
chain: QVSVQPNFQQDKFLGRWFVAGLASNSSWDREKVAALSGAKMVVAPATDGGLNVTRTMLRKNQCETYTGLLQPAGSLGSYSWRSPHPGSTGSESVVETDYDQYALVYGQGSKGPGEDLRAAALWSRTQTPRAELKEKFTAFSKAQGFTEDTIVFLPQTDKCMTEQ
encoding yield [27]: 0.1 | encoding yield [28]: 0.03 | encoding yield [29]: 0.05 | encoding yield [30]: 0.01 | encoding yield [31]: 0.03 | encoding yield [32]: 0.05 | encoding yield [33]: 0.05 | encoding yield [34]: 0.01 | encoding yield [35]: 0.03 | encoding yield [36]: 0.06 | encoding yield [37]: 0.03 | encoding yield [38]: 0.06 | encoding yield [39]: 0.15 | encoding yield [40]: 0.22 | encoding yield [41]: 0.03 | encoding yield [42]: 0.04 | encoding yield [43]: 0.03 | encoding yield [44]: 0.04 | encoding yield [45]: 0.02 | encoding yield [46]: 0.04 | encoding yield [47]: 0.01 | encoding yield [48]: 0.05 | encoding yield [49]: 0.02 | encoding yield [50]: 0.05 | encoding yield [51]: 0.06

Further lines, with some results ahead:

encoding yield [27]: 0.02 | encoding yield [28]: 0.06 | encoding yield [29]: 0.04 | encoding yield [30]: 0.03 | encoding yield [31]: 0.07 | encoding yield [32]: 0.15 | encoding yield [33]: 0.07 | encoding yield [34]: 0.01 | encoding yield [35]: 0.02 | encoding yield [36]: 0.03 | encoding yield [37]: 0.03 | encoding yield [38]: 0.07 | encoding yield [39]: 0.17 | encoding yield [40]: 0.04 | encoding yield [41]: 0.01 | encoding yield [42]: 0.02 | encoding yield [43]: 0.04 | encoding yield [44]: 0.04 | encoding yield [45]: 0.03 | encoding yield [46]: 0.12 | encoding yield [47]: 0.01 | encoding yield [48]: 0.02 | encoding yield [49]: 0.01 | encoding yield [50]: 0.04 | encoding yield [51]: 0.03
B2: engineered M44-L binder (SEQ ID NO: 31) (designed binder, not shown: small tags and cut ends; large carriers)
chain: QDSTQNLIPAPPLISVPLQPGFWTERFQGRWFLVGFAGNAVQKERQSRLTMQSLILELQEDNSYNITAINVRGQGCRYIISTLVPSSRPGQFTLGNIHSYPQIQSLDVQVADTDYDQFAMVFLQGTSENKQYFEVALAGRTKGLSDELKERFVSFAKSLGLKDNNIVFSVPTDQCIDN
P2 score [52]: 0.331

encoding yield [27]: 0.01 | encoding yield [28]: 0.07 | encoding yield [29]: 0.01 | encoding yield [30]: 0.01 | encoding yield [31]: 0.18 | encoding yield [32]: 0.27 | encoding yield [33]: 0.07 | encoding yield [34]: 0.01 | encoding yield [35]: 0.01 | encoding yield [36]: 0.01 | encoding yield [37]: 0.04 | encoding yield [38]: 0.04 | encoding yield [39]: 0.1 | encoding yield [40]: 0.02 | encoding yield [41]: 0.01 | encoding yield [42]: 0.01 | encoding yield [43]: 0.01 | encoding yield [44]: 0.01 | encoding yield [45]: 0 | encoding yield [46]: 0.02 | encoding yield [47]: 0 | encoding yield [48]: 0.01 | encoding yield [49]: 0.01 | encoding yield [50]: 0.01 | encoding yield [51]: 0.01
B4: engineered M44-L binder (SEQ ID NO: 21) (designed binder, not shown: small tags and cut ends; large carriers)
chain: QVSVQPNFQQDKFLGRWFYAGHASNSSWYREKVAALSMAKLVVAPATDGGLNATETFLRKNQCETITSLLQPAGSLGSYSSRSPHGGSTWSTSVVETDYDQYALLYLQGSKGPGEDFRGAILASRTQTPRAELKEKFTAFSKAQGFTEDTIVFLPQTDKCMTEQ
P2 score [52]: 0.408
